The source of these data is PMC2787660.

Some targets named below: apoA-I E198K (human); apoA-I L(46,47)D (human); apoA-I L(42,44)D (human).
Experiment in all cases: cross-linking

Regarding apoA-I E198K (natural protein), the stoichiometry N (usually a count of units in the complex or per binding partner) in the test with apoA-I E198K (human) was determined as 2. On to apoA-I L(46,47)D (natural protein), for which the stoichiometry N in the test with apoA-I L(46,47)D (human) amounted to 2. apoA-I L(42,44)D (natural protein) came in with a stoichiometry N with apoA-I L(42,44)D (human) of 2.
